Measurements as given in paper PMC3534021, “Structure of the TPR Domain of AIP: Lack of Client Protein Interaction with the C-Terminal α-7 Helix of the TPR Domain of AIP Is Sufficient for Pituitary Adenoma Predisposition” (PLoS ONE, 2012).
Changes are numbered by the printed parent chain. Where “and” joins values, the source holds several entries; their conditions need not be identical. Identical values can stand only once. Like-named read-outs stand apart in the source and are kept apart here. Values belong to the molecule of their own block, whether it stands above or below them. Where no end group is shown, it is not given here.

T1: AIP TPR-domain R304Q mutant (Homo sapiens, UniProt O00170, R304Q)
T1 construct: The TPR domain (residues 166–330) of human AIP; His tag (PreScission cleavable) (cleaved yes); made in house
T1 sequence (O00170 166-330 R304Q): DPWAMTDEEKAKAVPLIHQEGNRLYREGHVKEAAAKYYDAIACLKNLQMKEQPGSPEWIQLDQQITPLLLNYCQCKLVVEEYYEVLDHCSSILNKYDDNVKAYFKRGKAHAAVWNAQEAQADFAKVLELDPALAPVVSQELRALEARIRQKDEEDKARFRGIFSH

T2: AIP TPR-domain R304A mutant (Homo sapiens, UniProt O00170, R304A)
T2 construct: The TPR domain (residues 166–330) of human AIP; His tag (PreScission cleavable) (cleaved yes); made in house
T2 sequence (O00170 166-330 R304A): T1 sequence (O00170 166-330 R304Q) with Q139A

T3: TPR domain (residues 166–330) of human AIP, WT (Homo sapiens, UniProt O00170)
T3 construct: The TPR domain (residues 166–330) of human AIP; His tag (PreScission cleavable) (cleaved yes); made in house
T3 sequence (O00170 166-330): T1 sequence (O00170 166-330 R304Q) with Q139R

T4: TPR domain of human AIP, R304Q (disease-associated missense mutation) (human)
T4 sequence (O00170 166-330 with R304Q, looked up): T1 sequence (O00170 166-330 R304Q)

B1: TLEELDW peptide (PDE4A5) (peptide)
peptide: TLEELDW
notes: also called TLEELDW (hPDE4A5); PDE4A5 peptide
B2: full-length AIP: full-length aryl hydrocarbon receptor interacting protein, tested on HSP90 ATPase activity (protein, UniProt O00170 1-330, looked up)
chain: MADIIARLREDGIQKRVIQEGRGELPDFQDGTKATFHYRTLHSDDEGTVLDDSRARGKPMELIIGKKFKLPVWETIVCTMREGEIAQFLCDIKHVVLYPLVAKSLRNIAVGKDPLEGQRHCCGVAQMREHSSLGHADLDALQQNPQPLIFHMEMLKVESPGTYQQDPWAMTDEEKAKAVPLIHQEGNRLYREGHVKEAAAKYYDAIACLKNLQMKEQPGSPEWIQLDQQITPLLLNYCQCKLVVEEYYEVLDHCSSILNKYDDNVKAYFKRGKAHAAVWNAQEAQADFAKVLELDPALAPVVSRELRALEARIRQKDEEDKARFRGIFSH
modifications: full-length
B3: EDASRMEEVD peptide (human HSP90β C-terminus) (peptide)
peptide: EDASRMEEVD
notes: extreme C-terminus of human HSP90β; Only SRMEEVD was visible in the crystal structure
B4: GSGPTIEEVD peptide (human HSP70 C-terminus) (peptide)
peptide: GSGPTIEEVD
notes: C-terminus of human HSP70; also called HSP70 peptide
B5: DDTSRMEEVD peptide (human HSP90α C-terminus) (peptide)
peptide: DDTSRMEEVD
notes: extreme C-terminus of human HSP90α
B6: AQSLAEDDVE peptide (human TOMM20 C-terminus) (peptide)
peptide: AQSLAEDDVE
notes: extreme C-terminus of human TOMM20; Only AEDDVE was visible in the crystal structure
B7: MEEVD peptide (HSP90) (peptide)
peptide: MEEVD
notes: extreme C-terminal five residues of HSP90; also called MEEVD (HSP90)
B8: TPR domain (residues 166–330) of human AIP (aryl hydrocarbon receptor interacting protein), wild type (domain or fragment, UniProt O00170 166-330, looked up)
chain: T1 sequence (O00170 166-330 R304Q) with Q139R
notes: Residues Asp 172 to Arg 325 were visible in the TOMM20 peptide structure; also called AIP TPR-domain; WT

Columns and labels:
AIP = settings: cited from earlier work
Text: Recently, mutations in aryl hydrocarbon receptor interacting protein (AIP), [2] have been linked to familial isolated pituitary adenomas (FIPA) [3]–[5], a condition most often characterized by young-onset growth hormone and prolactin-secreting pituitary tumors (reviewed by), which leads to acromegaly and gigantism. The human AIP gene encodes a 37 kDa protein of 330 amino acids that, based on similarities to other proteins, is predicted to have an N-terminal immunophilin-like domain [7] and a C-terminal tetratricopeptide repeat (TPR) domain. Typically, TPR domains consist of ...

[1] = target: T1, AIP TPR-domain R304Q mutant; assay: Isothermal titration calorimetry, R304Q AIP TPR-domain; type: binding; settings: ITC, 20 mM Tris pH 7.5, 5 mM NaCl, 30°C, peptide 350-600 µM injected into 30 µM TPR-domain
Method: (§1) The TPR domain (residues 166–330) of human AIP was expressed as a PreScission cleavable His-tagged protein from pTWO-E (pET-17b derived; personal communication, A. W. Oliver, Sussex University). The TPR domain was purified by talon-affinity chromatography (Clontech, Oxford, UK), then concentrated and desalted on a HIPrep 26/10 desalting column equilibrated in 20 mM Tris pH 7.5 containing 1 mM EDTA. The sample was then cleaved overnight with GST-tagged PreScision protease. The cleaved protein was subsequently passed through a GST column equilibrated in 20 mM Tris pH 7.5, 1 mM EDTA and 150 mM NaCl and then through a second Talon column to remove any remaining uncleaved protein. The flow through was then concentrated and subjected to superdex 75HR gel-filtration chromatography equilibrated in 20 mM Tris pH 7.5, 1 mM EDTA, 1 mM DTT and 500 mM NaCl. Pure TPR domain were concentrated and then desalted on a HIPrep 26/10 column equilibrated in 20 mM Tris pH 7.5 containing 1 mM EDTA. The protein was stored frozen at 2 mg ml^−1.
(§2) The heat of interaction was measured on an ITC200 microcalorimeter (Microcal), with a cell volume of 200 µL, under the same buffer conditions (20 mM Tris, pH 7.5, containing 5 mM NaCl) at 30°C. Twenty 1.9 µL aliquots of AIP TPR-domain at 350 µM were injected into 30 µM of human HSP90β. For peptide interactions twenty 1.9 µL aliquots of peptide ranging from 350 to 600 µM were injected into 30 µM of AIP TPR-domain. Heats of dilution were determined in a separate experiment by diluting protein or peptide into buffer, and the corrected data were fitted using a non-linear least-squares curve-fitting algorithm (Microcal Origin) with three floating variables: stoichiometry, binding constant and change in enthalpy of interaction. ATPase assays were previously described [44]–[46].

[2] = target: T2, AIP TPR-domain R304A mutant; assay: Isothermal titration calorimetry, R304A AIP TPR-domain; type: binding; settings: ITC, 20 mM Tris pH 7.5, 5 mM NaCl, 30°C, peptide 350-600 µM injected into 30 µM TPR-domain
Method: as §1, §2

[3] = target: T3, TPR domain (residues 166–330) of human AIP, WT; assay: Isothermal titration calorimetry, wild-type AIP TPR-domain; type: binding; settings: ITC; for N (stoichiometry): first value where two are printed
Method: as §1, §2

full-length human HSP90β [4] = target: T5, full-length human HSP90β (human, UniProt P08238 1-724); assay: ITC; twenty 1.9 µL aliquots of AIP TPR-domain at 350 µM injected into 30 µM human HSP90β; 20 mM Tris pH 7.5, 5 mM NaCl, 30°C
T5 construct: HSP90β, human, full length; also called FL-hHSP90β; intact HSP90
T5 sequence (P08238 whole entry): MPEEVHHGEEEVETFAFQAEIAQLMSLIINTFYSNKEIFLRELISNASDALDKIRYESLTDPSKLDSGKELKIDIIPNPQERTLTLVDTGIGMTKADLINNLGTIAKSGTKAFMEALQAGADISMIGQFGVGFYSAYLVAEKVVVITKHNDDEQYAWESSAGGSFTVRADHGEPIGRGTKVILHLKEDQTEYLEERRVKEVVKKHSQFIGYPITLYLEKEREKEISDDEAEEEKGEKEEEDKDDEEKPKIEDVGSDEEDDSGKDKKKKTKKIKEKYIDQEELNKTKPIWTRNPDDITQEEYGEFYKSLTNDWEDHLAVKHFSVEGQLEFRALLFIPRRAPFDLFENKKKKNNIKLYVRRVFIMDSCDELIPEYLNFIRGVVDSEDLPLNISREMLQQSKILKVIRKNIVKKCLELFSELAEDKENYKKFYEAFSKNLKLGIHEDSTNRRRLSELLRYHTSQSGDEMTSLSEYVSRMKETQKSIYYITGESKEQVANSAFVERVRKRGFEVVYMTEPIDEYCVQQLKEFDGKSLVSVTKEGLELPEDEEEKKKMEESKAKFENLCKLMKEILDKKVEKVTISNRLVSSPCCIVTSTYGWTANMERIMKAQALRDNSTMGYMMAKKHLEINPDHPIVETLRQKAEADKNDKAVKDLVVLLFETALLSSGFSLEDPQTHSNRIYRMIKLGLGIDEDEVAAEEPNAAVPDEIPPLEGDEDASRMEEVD

[5] = target: AIP TPR-domain E192R mutant; assay: Isothermal titration calorimetry, E192R AIP TPR-domain; type: binding, human; settings: ITC, 20 mM Tris pH 7.5, 5 mM NaCl, 30°C, 350 µM AIP TPR injected into 30 µM HSP90β
Method: as §1, with “Pure TPR domain were concentrated and then desalted on a HIPrep 26/10 column equilibrated in 20 mM Tris pH 7.5 containing 1 mM EDTA. The protein was stored frozen at 2 mg ml^−1.” left out
The heat of interaction was measured on an ITC200 microcalorimeter (Microcal), with a cell volume of 200 µL, under the same buffer conditions (20 mM Tris, pH 7.5, containing 5 mM NaCl) at 30°C. […] Heats of dilution were determined in a separate experiment by diluting protein or peptide into buffer, and the corrected data were fitted using a non-linear least-squares curve-fitting algorithm (Microcal Origin) with three floating variables: stoichiometry, binding constant and change in enthalpy of interaction. […]

[6] = target: B8; assay: ITC; twenty 1.9 µL aliquots of peptide (350 to 600 µM) injected into 30 µM AIP TPR-domain; 20 mM Tris pH 7.5, 5 mM NaCl, 30°C; settings: both partners purified
HSP90 = HSP90 ATPase assay; type: biochemical; settings: 20-fold molar excess of full-length AIP
[7] = target: T4, TPR domain of human AIP, R304Q (disease-associated missense mutation) (human); assay: ITC; twenty 1.9 µL aliquots of peptide (350 to 600 µM) injected into 30 µM AIP TPR-domain; 20 mM Tris pH 7.5, 5 mM NaCl, 30°C
[8] = target: TPR domain of human AIP, R304A mutant (human); assay: as above
full-length human HSP90β [9] = target: T5, full-length human HSP90β; assay: ITC; twenty 1.9 µL aliquots of AIP TPR-domain at 350 µM injected into 30 µM human HSP90β; 20 mM Tris pH 7.5, 5 mM NaCl, 30°C; settings: both partners purified
full-length human HSP90β [10] = target: T5, full-length human HSP90β; assay: as above; settings: both partners purified; remark: listed apart in the source
[11] = 20 mM Tris pH 7.5, 5 mM NaCl, 30°C

Molecule: C=CC[C@@H]1/C=C(\C)C[C@H](C)C[C@H](OC)[C@H]2O[C@@](O)(C(=O)C(=O)N3CCCC[C@H]3C(=O)O[C@H](/C(C)=C/[C@@H]3CC[C@@H](O)[C@H](OC)C3)[C@H](C)[C@@H](O)CC1=O)[C@H](C)C[C@@H]2OC [FK506]
Binding to AIP (AIP): does not bind

Kd [1]: 16.2 ± 1.1 µM
Kd [2]: 15.6 ± 0.85 µM
Kd ([3]; range of the two titrations as given in the text): 14.4 to 18.6 µM
Molecule: CSCC[C@H](NC(=O)[C@H](CCCNC(=N)N)NC(=O)[C@H](CO)NC(=O)[C@H](C)NC(=O)[C@H](CC(=O)O)NC(=O)[C@@H](N)CCC(=O)O)C(=O)N[C@@H](CCC(=O)O)C(=O)N[C@@H](CCC(=O)O)C(=O)N[C@H](C(=O)N[C@@H](CC(=O)O)C(=O)O)C(C)C [EDASRMEEVD]

Kd (full-length human HSP90β [4]): 11.1 µM
dH (full-length human HSP90β [4]): -4.11 kcal/mol
stoichiometry N (full-length human HSP90β [4]): 0.47
Molecule: TPR domain of human AIP, E192R mutant (domain or fragment)

Kd [5]: 11.1 ± 1.3 µM
ΔH [3, 11]: -4.554 kcal/mol
ΔS [3, 11]: 7.29 Cal/mol/deg
N (stoichiometry) ([3]; 20 mM Tris pH 7.5, 5 mM NaCl, 30°C, for HSP90β given as AIP:HSP90): 0.30
N (stoichiometry) ([3]; 20 mM Tris pH 7.5, 5 mM NaCl, 30°C, for HSP90β given as AIP:HSP90, listed as HSP90β): 0.3
Kd ([3]; 20 mM Tris pH 7.5, 5 mM NaCl, 30°C, peptide 350-600 µM injected into 30 µM AIP TPR-domain (for HSP90β: 350 µM AIP TPR into 30 µM HSP90β)): 13.3 ± 1.8 µM
Molecule: FL-hHSP90β: full-length human HSP90β chaperone protein

Molecule: CO[C@H]1C[C@@H]2CC[C@@H](C)[C@@](O)(O2)C(=O)C(=O)N2CCCC[C@H]2C(=O)O[C@H]([C@H](C)C[C@@H]2CC[C@@H](O)[C@H](OC)C2)CC(=O)[C@H](C)/C=C(\C)[C@@H](O)[C@@H](OC)C(=O)[C@H](C)C[C@H](C)/C=C/C=C/C=C/1C [rapamycin]
Binding to AIP (AIP): does not bind

Kd [1]: 22.5 ± 2.2 µM
Kd [2]: 16.6 ± 0.5 µM
Molecule: AQSLAEDDVE [AQSLAEDDVE]

Kd [1]: 31.1 ± 2.6 µM
Kd [2]: 22.8 ± 1.6 µM
Molecule: CC[C@H](C)[C@H](NC(=O)[C@@H](NC(=O)[C@@H]1CCCN1C(=O)CNC(=O)[C@H](CO)NC(=O)CN)[C@@H](C)O)C(=O)N[C@@H](CCC(=O)O)C(=O)N[C@@H](CCC(=O)O)C(=O)N[C@H](C(=O)N[C@@H](CC(=O)O)C(=O)O)C(C)C [GSGPTIEEVD]

Molecule: B1
Kd [6]: 64.5 ± 3.2 µM
dH [6]: -4.42 kcal/mol
stoichiometry N [6]: 0.89

Molecule: B2
Effect on the ATPase activity of HSP90 (HSP90): did not influence

Molecule: B3
Kd [6]: 18.6 µM and 14.4 µM
dH [6]: -5.04 kcal/mol and -3.92 kcal/mol
stoichiometry N [6]: 1.2 and 1.1
Kd [7]: 16.2 µM
dH [7]: -6.42 kcal/mol
stoichiometry N [7]: 0.98
Kd [8]: 15.6 µM
dH [8]: -6.44 kcal/mol
stoichiometry N [8]: 0.96

Molecule: B4
Kd [6]: 18.1 ± 1.9 µM
dH [6]: -6.35 kcal/mol
stoichiometry N [6]: 0.63
Kd [7]: 31.1 µM
dH [7]: -5.5 kcal/mol
stoichiometry N [7]: 0.84
Kd [8]: 22.8 µM
dH [8]: -5.46 kcal/mol
stoichiometry N [8]: 0.66

Molecule: B5
Kd [6]: 9.5 ± 0.6 µM
dH [6]: -3.53 kcal/mol
stoichiometry N [6]: 1.2

Molecule: B6
Kd [6]: 12.3 ± 0.5 µM
dH [6]: -6.77 kcal/mol
stoichiometry N [6]: 0.87
Kd [7]: 22.5 µM
dH [7]: -6.07 kcal/mol
stoichiometry N [7]: 0.66
Kd [8]: 16.6 µM
dH [8]: -4.51 kcal/mol
stoichiometry N [8]: 0.69

Molecule: B7
Kd [6]: 12.6 ± 1.6 µM
dH [6]: -4.14 kcal/mol
stoichiometry N [6]: 1

Molecule: B8
stoichiometry N (full-length human HSP90β [9]): 0.5
Kd (full-length human HSP90β [10]): 13.3 ± 1.8 µM
dH (full-length human HSP90β [10]): -4.55 kcal/mol
stoichiometry N (full-length human HSP90β [10]): 0.3
